Columns and labels:
PD-L1/Fc = target: T1, PD-L1/Fc (human, UniProt Q9NZQ7 19-238, limits assumed); test: competition ELISA: G12 IgG pre-mixed with PD-L1/Fc, binding to coated PD1/His detected with anti-human Fc HRP
T1 construct: also called rhPD-L1; not shown: Fc part (detected with anti-human Fc)
Procedure: A 96-well ELISA plate was coated with 1 ng/μL PD1/His at 4° C. overnight, then blocked with casein in PBS. […] Transferred 25 μl the mixtures to the ELISA plate and incubated 30 min with shaking. Washed 3 times with PBST. Added HRP conjugated Goat anti-human Fc (1:500 in casein), used TMB as substrate and developed 30 min. 2M H₂SO₄ was added to stop the reaction. Read the OD at 450 nm.

[1] = target: T2, human PD-L1 expressed on the surface of cells (human, UniProt Q9NZQ7 19-290); test: flow cytometry (Intellicyt HTFC) on ES-2 ovarian carcinoma cells treated with IFNγ for 18 hr, PE anti-human IgG detection
T2 construct: whole, on cells; also called CHO-PD-L1; PD-L1 on ES-2 ovarian carcinoma cells
Procedure: (§1) After 0.5 hr incubation, cells were washed 1× with FACS Buffer and resuspended in 50 μl PE-conjugated, goat anti-human IgG (γ-chain specific) secondary antibody (Southern Biotech Cat #2040-09). Cells were further incubated for 0.5 hr and then washed 1× with FACS Buffer. Cells were resuspended in 25 μl FACS Buffer and the median fluorescence intensity in the FL2-H channel was determined using the Intellicyt HTFC flow cytometer.

rhPD-L1 = target: T3, rhPD-L1 (human, UniProt Q9NZQ7 19-238, limits assumed); test: Biacore SPR, rhPD-L1 immobilized on CM5 chip, antibody in solution, 1:1 Langmuir fit
T3 construct: also called recombinant human PD-L1
Procedure: All measurements were conducted in HBS-EP buffer with a flow rate of 30 μL/min. Antibody was diluted so as to obtain a series of concentrations. A 1:1 (Langmuir) binding model was used to fit the data.

[2] = target: T2, human PD-L1 expressed on the surface of …; test: flow cytometry competition: CHO-PD-L1 cells pre-incubated with G12, then rhPD-1-Fc, detected with Alexa-Fluor 647 anti-PD-1 antibody
From the text: Data points are shown as the median fluorescence detected in the FL-4H channel +/− Std Error.

[3] = target: T2, human PD-L1 expressed on the surface of …; test: flow cytometry (Intellicyt HTFC) on CHO-PD-L1 cells, PE anti-human IgG detection
Procedure: as §1

T2 sequence (Q9NZQ7 19-290): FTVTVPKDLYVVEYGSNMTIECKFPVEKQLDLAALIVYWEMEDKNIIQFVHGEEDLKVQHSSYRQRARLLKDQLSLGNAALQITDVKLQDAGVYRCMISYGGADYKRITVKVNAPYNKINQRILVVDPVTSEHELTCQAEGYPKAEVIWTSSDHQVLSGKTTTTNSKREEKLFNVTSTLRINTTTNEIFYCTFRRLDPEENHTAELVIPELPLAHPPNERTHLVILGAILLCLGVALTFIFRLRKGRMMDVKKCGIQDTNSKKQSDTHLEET
T3 sequence (Q9NZQ7 19-238 limits assumed): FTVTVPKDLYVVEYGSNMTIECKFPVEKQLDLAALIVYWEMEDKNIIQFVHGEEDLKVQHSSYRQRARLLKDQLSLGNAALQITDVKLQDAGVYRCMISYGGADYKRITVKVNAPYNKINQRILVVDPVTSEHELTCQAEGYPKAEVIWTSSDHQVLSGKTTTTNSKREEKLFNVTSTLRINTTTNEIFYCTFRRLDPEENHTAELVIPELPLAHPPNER
T1 sequence (Q9NZQ7 19-238 limits assumed): as above

B1: G12 anti-PD-L1 antibody (antibody, V domains shown)
VH: EVQLVQSGAEVKKPGASVKVSCKASGYTFTGYYMHWVRQAPGQGLEWMGWINPNSDNTGSAQKFQGRVFMTKTTSLNTAYMELSGLRSEDTAIYYCARERSSGYFDFWGQGTLVTVSS
VL: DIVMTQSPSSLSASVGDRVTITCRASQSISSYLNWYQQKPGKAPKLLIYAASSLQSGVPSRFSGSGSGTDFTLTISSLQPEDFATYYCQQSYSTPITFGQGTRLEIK
notes: Fully human antibody of an IgG class; detected with anti-human IgG gamma-chain specific secondary; also called anti-PD-L1 mAb G12
IC50 (PD-L1/Fc): 72.9 pM | EC50 [1]: 45.8 pM | Kd (rhPD-L1): 37.4 pM | koff (rhPD-L1): 0.00049 s⁻¹ | kon (rhPD-L1): 1.31e+07 M⁻¹ s⁻¹ | IC50 [2]: 1760 pM | EC50 [3]: 1710 pM
